Like-named read-outs stand apart in the source and are kept apart here.
Tests used:
[1] = target: recombinant human APRIL (human) (UniProt O75888); assay: cell-based or functional assay
[2] = target: recombinant human BAFF (human) (UniProt Q9Y275); assay: cell-based or functional assay
[3] = target: recombinant human APRIL (human) (UniProt O75888); assay: cell-based or functional assay; remark: listed apart in the source
[4] = target: recombinant human BAFF (human) (UniProt Q9Y275); assay: cell-based or functional assay; remark: listed apart in the source
[5] = target: recombinant human BAFF (human) (UniProt Q9Y275)
[6] = target: APRIL + BAFF in combination (human); assay: cell-based or functional assay
[7] = target: recombinant mouse APRIL (mouse) (UniProt Q9D777); assay: cell-based or functional assay
[8] = target: recombinant mouse BAFF (mouse) (UniProt Q9WU72); assay: cell-based or functional assay
[9] = target: recombinant human BAFF (human) (UniProt Q9Y275); remark: listed apart in the source
BAFF 60-mer (human) = BAFF 60-mer (human) (UniProt Q9Y275); assay: cell-based or functional assay

TACI WT 13 (G4S)4 (84) TACI WT 13 GSG4S (74) Fc 73 (Fc fusion), sequence (chain): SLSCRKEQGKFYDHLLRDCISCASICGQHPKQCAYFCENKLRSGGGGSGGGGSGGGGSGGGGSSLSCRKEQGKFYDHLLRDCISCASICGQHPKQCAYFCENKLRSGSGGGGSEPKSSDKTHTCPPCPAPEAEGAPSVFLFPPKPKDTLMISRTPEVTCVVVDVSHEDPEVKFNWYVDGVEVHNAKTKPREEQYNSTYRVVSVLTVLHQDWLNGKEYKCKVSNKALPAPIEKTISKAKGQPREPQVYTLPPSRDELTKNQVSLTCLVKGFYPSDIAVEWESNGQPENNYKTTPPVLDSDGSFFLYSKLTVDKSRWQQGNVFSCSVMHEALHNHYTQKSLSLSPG
TACI 30-110-Fc (Fc fusion), sequence (chain): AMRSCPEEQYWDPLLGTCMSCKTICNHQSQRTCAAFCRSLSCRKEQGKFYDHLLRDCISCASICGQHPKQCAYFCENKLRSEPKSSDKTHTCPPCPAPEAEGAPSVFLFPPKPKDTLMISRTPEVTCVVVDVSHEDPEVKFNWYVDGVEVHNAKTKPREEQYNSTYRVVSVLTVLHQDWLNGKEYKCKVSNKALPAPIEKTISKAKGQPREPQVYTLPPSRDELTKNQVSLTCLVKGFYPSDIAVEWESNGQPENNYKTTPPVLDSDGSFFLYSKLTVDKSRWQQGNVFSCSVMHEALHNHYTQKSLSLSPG
TACI WT 13 GSG4S (74) Fc 73 (G4S)4 (84) TACI WT 13 (Fc fusion), sequence (chain): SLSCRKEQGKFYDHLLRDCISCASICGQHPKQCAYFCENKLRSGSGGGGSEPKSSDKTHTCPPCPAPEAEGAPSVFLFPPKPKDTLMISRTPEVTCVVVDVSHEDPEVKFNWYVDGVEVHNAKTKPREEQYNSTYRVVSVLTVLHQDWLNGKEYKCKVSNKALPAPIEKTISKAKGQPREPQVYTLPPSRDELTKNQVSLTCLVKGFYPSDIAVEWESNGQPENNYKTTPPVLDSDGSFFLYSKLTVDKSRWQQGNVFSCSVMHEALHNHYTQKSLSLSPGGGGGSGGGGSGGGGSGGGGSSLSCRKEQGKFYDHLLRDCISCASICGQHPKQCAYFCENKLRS
Atacicept (WT TACI-Fc with the atacicept sequence) (Fc fusion), sequence (chain): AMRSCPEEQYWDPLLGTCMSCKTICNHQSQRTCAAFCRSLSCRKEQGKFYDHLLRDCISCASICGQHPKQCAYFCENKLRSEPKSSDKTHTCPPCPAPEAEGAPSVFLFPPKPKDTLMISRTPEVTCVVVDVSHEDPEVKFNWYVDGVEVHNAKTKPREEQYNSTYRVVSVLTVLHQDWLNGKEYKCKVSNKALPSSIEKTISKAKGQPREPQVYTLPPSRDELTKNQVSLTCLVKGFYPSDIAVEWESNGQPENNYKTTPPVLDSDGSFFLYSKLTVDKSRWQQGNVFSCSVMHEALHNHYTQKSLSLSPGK
27 TACI CRD2-Fc (Fc fusion), sequence (chain): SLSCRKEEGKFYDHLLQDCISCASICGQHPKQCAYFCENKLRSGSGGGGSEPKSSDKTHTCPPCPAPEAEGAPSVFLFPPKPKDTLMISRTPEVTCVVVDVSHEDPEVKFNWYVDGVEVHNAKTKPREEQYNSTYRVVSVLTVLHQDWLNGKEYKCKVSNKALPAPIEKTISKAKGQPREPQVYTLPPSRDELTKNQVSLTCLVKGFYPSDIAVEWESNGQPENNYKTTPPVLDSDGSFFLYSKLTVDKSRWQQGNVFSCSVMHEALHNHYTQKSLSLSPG
TACI 13-118-Fc (Fc fusion), sequence (chain): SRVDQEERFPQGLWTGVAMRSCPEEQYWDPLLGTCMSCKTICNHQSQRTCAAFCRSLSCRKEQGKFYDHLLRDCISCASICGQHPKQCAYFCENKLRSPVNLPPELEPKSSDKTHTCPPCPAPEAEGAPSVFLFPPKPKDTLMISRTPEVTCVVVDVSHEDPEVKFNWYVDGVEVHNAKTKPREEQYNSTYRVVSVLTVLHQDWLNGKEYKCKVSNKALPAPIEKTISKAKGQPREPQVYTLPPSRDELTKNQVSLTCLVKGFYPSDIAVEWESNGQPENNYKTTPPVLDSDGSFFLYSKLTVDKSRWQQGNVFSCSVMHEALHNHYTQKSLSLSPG
29 TACI CRD2-Fc (Fc fusion), sequence (chain): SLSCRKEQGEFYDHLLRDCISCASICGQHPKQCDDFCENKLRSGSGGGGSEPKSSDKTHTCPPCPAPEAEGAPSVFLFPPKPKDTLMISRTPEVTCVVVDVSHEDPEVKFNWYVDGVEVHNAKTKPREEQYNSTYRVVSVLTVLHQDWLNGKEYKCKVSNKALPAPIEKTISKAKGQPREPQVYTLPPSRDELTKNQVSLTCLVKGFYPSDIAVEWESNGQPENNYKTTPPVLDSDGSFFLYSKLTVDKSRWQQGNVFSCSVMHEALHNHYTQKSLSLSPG
recombinant mouse APRIL (mouse), sequence (Q9D777 96-241 limits assumed): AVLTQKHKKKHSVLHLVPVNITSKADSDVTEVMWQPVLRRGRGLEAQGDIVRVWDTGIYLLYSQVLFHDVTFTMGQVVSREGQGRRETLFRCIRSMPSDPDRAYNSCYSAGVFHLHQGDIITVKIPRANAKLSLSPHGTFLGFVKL
WT TACI 13-118-Fc based on the published telitacicept sequence (Fc fusion), sequence (chain): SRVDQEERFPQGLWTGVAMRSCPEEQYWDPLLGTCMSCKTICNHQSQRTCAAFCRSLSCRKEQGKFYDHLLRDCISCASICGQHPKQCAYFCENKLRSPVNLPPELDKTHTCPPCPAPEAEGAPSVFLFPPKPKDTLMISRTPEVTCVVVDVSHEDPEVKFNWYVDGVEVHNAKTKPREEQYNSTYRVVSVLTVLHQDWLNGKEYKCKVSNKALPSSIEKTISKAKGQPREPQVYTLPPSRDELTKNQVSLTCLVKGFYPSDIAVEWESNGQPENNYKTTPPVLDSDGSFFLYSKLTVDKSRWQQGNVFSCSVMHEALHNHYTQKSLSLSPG
recombinant mouse BAFF (mouse), sequence (Q9WU72 127-309 limits assumed): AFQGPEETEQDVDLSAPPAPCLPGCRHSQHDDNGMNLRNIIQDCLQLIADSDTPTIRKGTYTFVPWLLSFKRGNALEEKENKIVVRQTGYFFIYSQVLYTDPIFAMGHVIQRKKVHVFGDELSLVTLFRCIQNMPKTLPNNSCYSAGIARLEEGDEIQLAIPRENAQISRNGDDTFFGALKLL

| Substance | IC50, Jurkat/NF-kB/TACI reporter [1] [nM] | IC50 relative to WT TACI (68-110)-Fc (Δ WT) [1] | IC50, Jurkat/NF-kB/TACI reporter [2] [nM] | IC50 relative to WT TACI (68-110)-Fc (Δ WT) [2] | further results |
| --- | --- | --- | --- | --- | --- |
| 23 TACI CRD2-Fc (A101D) (Fc fusion) | 8.38 | 0.68 | 1.83 | 0.99 | – |
| 24 TACI CRD2-Fc (K77E, R84Q) (Fc fusion) | 4.26 | 0.35 | 2.26 | 1.22 | – |
| 25 TACI CRD2-Fc (K77E, A101D) (Fc fusion) | 2.04 | 0.17 | 1.96 | 1.06 | – |
| 27 TACI CRD2-Fc (Fc fusion) | 11.8 | 0.96 | 1.46 | 0.79 | IC50, Jurkat/NF-kB/TACI reporter [3]: 262 nM; IC50 relative to TACI 30-110-Fc [3]: 0.07; IC50, Jurkat/NF-kB/TACI reporter [4]: 1390 nM; IC50 relative to TACI 30-110-Fc [4]: 0.24 |
| 29 TACI CRD2-Fc (Fc fusion) | 2.91 | 0.24 | 1.18 | 0.64 | IC50, Jurkat/NF-kB/TACI reporter [3]: 339 nM; IC50 relative to TACI 30-110-Fc [3]: 0.09; IC50 relative to TACI 30-110-Fc [4]: 0.23 |
| 30 TACI CRD2-Fc (R84Q) (Fc fusion) | 0.566 | 0.05 | 5.49 | 2.96 | IC50 (read off the curve), human BAFF, NF-κB luciferase reporter, Jurkat/TACI/NF-κB cells [5]: 1 nM |
| 32 TACI CRD2-Fc (K77E) (Fc fusion) | 0.159 | 0.01 | 1.54 | 0.83 | – |
| 177 TACI CRD2-Fc (Q75E) (Fc fusion) | 1.94 | 0.16 | 1.46 | 0.79 | – |
| 178 TACI CRD2-Fc (Q75E, K77E) (Fc fusion) | 10.7 | 0.87 | 1.89 | 1.02 | – |
| 179 TACI CRD2-Fc (Q75E, F78Y) (Fc fusion) | 13.4 | 1.09 | 1.79 | 0.97 | – |
| 180 TACI CRD2-Fc (Q75E, A101D) (Fc fusion) | 20 | 1.62 | 2.36 | 1.27 | – |
| 181 TACI CRD2-Fc (Q75E, Y102D) (Fc fusion) | 11.1 | 0.9 | 2.15 | 1.16 | – |
| 182 TACI CRD2-Fc (K77E, F78Y, R84Q) (Fc fusion) | 10.1 | 0.82 | 2.21 | 1.19 | – |
| 183 TACI CRD2-Fc (F78Y) (Fc fusion) | 0.176 | 0.01 | 1.64 | 0.88 | – |
| 184 TACI CRD2-Fc (F78Y, R84Q) (Fc fusion) | 2.62 | 0.21 | 2.26 | 1.22 | – |
| 185 TACI CRD2-Fc (F78Y, A101D) (Fc fusion) | 2.02 | 0.16 | 1.85 | 1 | – |

| Substance | IC50, Jurkat/NF-kB/TACI reporter [1] [nM] | IC50 relative to WT TACI (68-110)-Fc (Δ WT) [1] | IC50, Jurkat/NF-kB/TACI reporter [2] [nM] | IC50 relative to WT TACI (68-110)-Fc (Δ WT) [2] | further results |
| --- | --- | --- | --- | --- | --- |
| 186 TACI CRD2-Fc (F78Y, Y102D) (Fc fusion) | 8.49 | 0.69 | 1.96 | 1.06 | – |
| 187 TACI CRD2-Fc (R84Q, A101D) (Fc fusion) | 11.2 | 0.91 | 2.35 | 1.27 | – |
| 188 TACI CRD2-Fc (R84Q, Y102D) (Fc fusion) | 12.3 | 1 | 1.86 | 1.01 | – |
| 189 TACI CRD2-Fc (A101D, Y102D) (Fc fusion) | 33.6 | 2.72 | 1.95 | 1.05 | – |
| 190 TACI CRD2-Fc (Y102D) (Fc fusion) | 11.6 | 0.94 | 1.86 | 1 | – |
| 191 TACI CRD2-Fc (K77E, F78Y) (Fc fusion) | 10.1 | 0.82 | 1.97 | 1.06 | – |
| 192 TACI CRD2-Fc (K77E, Y102D) (Fc fusion) | 0.891 | 0.07 | 2.18 | 1.17 | – |
| Atacicept (WT TACI-Fc with the atacicept sequence) (Fc fusion) | – | – | 7.74 | 4.17 | IC50, Jurkat/NF-kB/TACI reporter [6]: 7.72 nM; IC50, TACI/Jurkat/NF-kB reporter [6]: > 200 nM; IC50, Jurkat/NF-kB/TACI reporter [3]: 9.26 nM; IC50, TACI/Jurkat/NF-kB reporter [3]: > 200 nM; IC50, Jurkat/NF-kB/TACI reporter [4]: 8.29 nM; IC50, TACI/Jurkat/NF-kB reporter [4]: 20.8 nM; IC50, TACI/Jurkat/NF-kB reporter [7]: 18 nM; IC50, TACI/Jurkat/NF-kB reporter [8]: 9 nM |
| BAFF-R ECD (receptor) | – | – | 53.2 | 28.7 | – |
| TACI 13-118, with K77E/F78Y/Y102D, Fc fusion | 13.2 | 1.07 | 1.99 | 1.07 | IC50, Jurkat/NF-kB/TACI reporter [3]: 848 nM; IC50 relative to TACI 30-110 [3]: 0.2; IC50, Jurkat/NF-kB/TACI reporter [4]: 2050 nM; IC50 relative to TACI 30-110 [4]: 0.46 |
| TACI 13-118-Fc (Fc fusion) | – | – | 7.91 | 4.26 | IC50 (read off the curve), human BAFF, NF-κB luciferase reporter, TACI/Jurkat/NF-κB cells [9]: 20 nM; IC50, Jurkat/NF-kB/TACI reporter [3]: 7810 nM; IC50 relative to TACI 30-110 [3]: 1.81; IC50 relative to TACI 30-110-Fc [3]: 2.37; IC50, Jurkat/NF-kB/TACI reporter [4]: 7700 nM; IC50 relative to TACI 30-110 [4]: 1.88; IC50 relative to TACI 30-110-Fc [4]: 1.33 |
| TACI 30-110-Fc (Fc fusion) | – | – | – | – | IC50 (read off the curve), human BAFF, NF-κB luciferase reporter, TACI/Jurkat/NF-κB cells [9]: 20 nM; IC50, TACI/Jurkat/NF-kB reporter (BAFF 60-mer (human)): > 100 nM; IC50, Jurkat/NF-kB/TACI reporter [3]: 4320 nM; IC50 relative to TACI 30-110 [3]: 1; IC50 relative to TACI 30-110-Fc [3]: 1; IC50, Jurkat/NF-kB/TACI reporter [4]: 4490 nM; IC50 relative to TACI 30-110 [4]: 1; IC50 relative to TACI 30-110-Fc [4]: 1 |
| TACI WT 13 (G4S)4 (84) TACI WT 13 GSG4S (74) Fc 73 (Fc fusion) | – | – | – | – | IC50, Jurkat/NF-kB/TACI reporter (BAFF 60-mer (human)): 4.33 nM; IC50, Jurkat/NF-kB/TACI reporter [3]: 34.6 nM; IC50, Jurkat/NF-kB/TACI reporter [4]: 3.29 nM |
| TACI WT 13 GSG4S (74) Fc 73 (G4S)4 (84) TACI WT 13 (Fc fusion) | – | – | – | – | IC50, Jurkat/NF-kB/TACI reporter (BAFF 60-mer (human)): 2.58 nM; IC50, Jurkat/NF-kB/TACI reporter [3]: 11.9 nM; IC50, Jurkat/NF-kB/TACI reporter [4]: 1.04 nM |
| WT TACI 13-118-Fc based on the published telitacicept sequence (Fc fusion) | – | – | – | – | IC50, TACI/Jurkat/NF-kB reporter [6]: > 200 nM |

Source: US20260250352A1
